± gives the standard deviation of the averaged measurements.
B1: library; a variant is named by its letters at N, in order (parent)
chain: GCUGUCACCGGUGCUUGGUACGUUAUAUUCAGCCGGUCUGAUGAGUCUNNNNNNAGACGAAACAGC

What was measured:
(6R,S)-folinic acid [1] = variants of: B1; assay: FACS-Seq fitted mean relative fluorescence mCherry/BFP without ligand (log10 relative fluorescence); HEK293T overexpressing SLC46A1; higher = higher reporter protein expression; conditions: without (6R,S)-folinic acid; ligand present: no
Summary of the method: (§1)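 HEK293T libraries were made by lentiviral transduction with a ribozyme-switch mCherry reporter and an EF1α-BFP marker, enriched, and incubated with or without ligand for 48 h. Cells were sorted into 6 mCherry/BFP bins, and each bin's genomic DNA was PCR-amplified, barcoded and run on MiSeq. Fluorescence was derived by normal fitting of the bin counts. The fitted log10(mCherry/BFP) mean was scaled to five spiked-in control ribozymes.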

(6R,S)-folinic acid [2] = variants of: B1; assay: normalized RNA/DNA level without ligand (relative to sTRSVctl = 100) (log10 (% of sTRSVctl)); HEK293T overexpressing SLC46A1; higher = less ribozyme self-cleavage, higher mRNA level; conditions: without (6R,S)-folinic acid; ligand present: no
Summary of the method: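 HEK293T cells were transfected with library plasmids carrying ribozyme switches linked to an mCherry reporter, or an eGFP reporter in some ligand experiments, at 4 µg per well of a 6-well plate, with any ligand added 1 h beforehand. After 72 h, total RNA was extracted with EDTA, reverse-transcribed, amplified, barcoded and sequenced. RNA level was defined as RNA reads over DNA reads, normalized to a spiked-in non-cleaving sequence or to the top-ranked sequences. That value was multiplied by 100 and converted to log10, the top set was 25 sequences, and only sequences with ≥100 DNA reads were retained.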

(6R,S)-folinic acid [3] = variants of: B1; assay: FACS-Seq fitted mean relative fluorescence mCherry/BFP with ligand (log10 relative fluorescence); HEK293T overexpressing SLC46A1; ligand concentration (+) FACS-Seq: 6 mM; higher = higher reporter protein expression; conditions: with (6R,S)-folinic acid; ligand present: yes
Summary of the method: as §1

(6R,S)-folinic acid [4] = variants of: B1; assay: normalized RNA/DNA level with ligand (relative to sTRSVctl = 100) (log10 (% of sTRSVctl)); HEK293T overexpressing SLC46A1; ligand concentration (+) RNA-Seq: 6 mM; higher = less ribozyme self-cleavage, higher mRNA level; conditions: with (6R,S)-folinic acid; ligand present: yes
Procedure: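 Hammerhead (sTRSV) ribozyme switch libraries with a ligand aptamer grafted on stem I and a randomized N4-6 loop II, cloned into the 3' UTR of mCherry and transiently transfected into HEK293T cells; RNA-Seq 72 h post transfection with ligand added 1 h before transfection; RNA read count / plasmid DNA read count normalized to the non-cleaving sTRSVctl (x100), log10; sequences with >100 DNA reads. FACS-Seq: lentiviral library sorted into 6 bins after 48 h ligand, log-normal fit mean of mCherry/BFP scaled to controls. Printed sequences are partial switch sequences.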

Variant | FACS-Seq fitted mean (log10) ((6R,S)-folinic acid [1]) | normalized RNA/DNA level without ligand (log10) ((6R,S)-folinic acid [2]) | FACS-Seq fitted mean (log10) ((6R,S)-folinic acid [3]) | normalized RNA/DNA level with ligand (log10) ((6R,S)-folinic acid [4])
GGGUAU | 0.149 ± 0.054 | 2.014 ± 0.015 | 0.284 ± 0.16 | 2.01 ± 0.033
GGGUAG | 0.0738 ± 0.081 | 1.979 ± 0.0061 | 0.00328 ± 0.082 | 2.013 ± 0.015
GGGUAC | 0.536 ± 0.17 | 1.952 ± 0.0069 | 0.245 ± 0.036 | 1.99 ± 0.073
AGCAGA | 0.0194 ± 0.039 | 1.98 ± 0.0025 | -0.229 ± 0.27 | 2.02 ± 0.029
AGCCGU | 0.507 ± 0.044 | 2.018 ± 0.017 | 0.3424 ± 0.0012 | 2.0145 ± 0.00041
CGCUGC | 0.0944 ± 0.13 | 2.091 ± 0.012 | -0.0623 ± 0.071 | 2.0496 ± 0.0017
UGCGGG | -0.0146 ± 0.0024 | 1.788 ± 0.011 | 0.675 ± 0.21 | 1.99 ± 0.043
UGAUUG | 0.168 ± 0.056 | 1.768 ± 0.0099 | 0.541 ± 0.042 | 1.96 ± 0.025
UGAUUA | -0.918 ± 0.18 | 1.951 ± 0.0029 | -0.48 ± 0.39 | 2.01 ± 0.037
UGCAAU | 0.173 ± 0.069 | 1.841 ± 0.0071 | 0.456 ± 0.15 | 1.973 ± 0.016
UGCAAA | 0.549 ± 0.013 | 1.957 ± 0.0057 | 0.532 ± 0.037 | 1.98 ± 0.034
UGGAGA | 0.189 ± 0.11 | 1.83 ± 0.026 | 0.388 ± 0.12 | 2.01 ± 0.044
UGGAGU | 0.504 ± 0.12 | 1.894 ± 0.0062 | 0.658 ± 0.037 | 1.99 ± 0.035
UGGAGG | 0.042 ± 0.039 | 1.641 ± 0.0022 | 0.458 ± 0.14 | 1.96 ± 0.031
GGGACU | 0.111 ± 0.0086 | 2.023 ± 0.011 | 0.0545 ± 0.19 | 2.008 ± 0.019
GGGACA | 0.123 ± 0.064 | 1.997 ± 0.016 | 0.248 ± 0.14 | 2 ± 0.063
AGUAAA | 0.22 ± 0.14 | 1.954 ± 0.013 | 0.344 ± 0.14 | 1.98 ± 0.041
UGCUGG | 0.145 ± 0.014 | 1.85 ± 0.025 | 0.325 ± 0.18 | 2.02 ± 0.065
UGCUGA | 0.285 ± 0.21 | 2.02 ± 0.024 | 0.321 ± 0.12 | 2.05 ± 0.043
UGAUGU | 0.318 ± 0.071 | 1.93 ± 0.021 | 0.125 ± 0.22 | 2.02 ± 0.044
UGAUGG | 0.038 ± 0.0089 | 1.625 ± 0.0082 | 0.583 ± 0.093 | 1.91 ± 0.038
UGAUGA | 0.447 ± 0.11 | 1.865 ± 0.0033 | 0.525 ± 0.05 | 2.01 ± 0.047
CGCAGC | 0.491 ± 0.09 | 2.01 ± 0.033 | 0.645 ± 0.4 | 2.01 ± 0.031
GGGUCG | 0.531 ± 0.011 | 2.082 ± 0.0039 | 0.432 ± 0.17 | 2.06 ± 0.05

Variant | FACS-Seq fitted mean (log10) ((6R,S)-folinic acid [1]) | normalized RNA/DNA level without ligand (log10) ((6R,S)-folinic acid [2]) | FACS-Seq fitted mean (log10) ((6R,S)-folinic acid [3]) | normalized RNA/DNA level with ligand (log10) ((6R,S)-folinic acid [4])
GGCGAU | 0.444 ± 0.0094 | 2.07 ± 0.027 | 0.55 ± 0.15 | 2.037 ± 0.015
GGCGAC | 0.216 ± 0.01 | 1.998 ± 0.003 | 0.128 ± 0.013 | 1.989 ± 0.0031
GGCACC | 0.275 ± 0.084 | 2.018 ± 0.0066 | -0.0119 ± 0.33 | 2.017 ± 0.0025
GGCACU | -0.00197 ± 0.025 | 2.08 ± 0.04 | -0.0531 ± 0.17 | 2.02 ± 0.036
UGCGAC | 0.375 ± 0.053 | 1.979 ± 0.018 | 0.26 ± 0.29 | 2.02 ± 0.034
UGCGAG | 0.31 ± 0.21 | 1.71 ± 0.027 | -0.231 ± 0.053 | 1.96 ± 0.058
UGCGAU | 0.213 ± 0.026 | 1.85 ± 0.019 | -0.0289 ± 0.033 | 1.98 ± 0.029
UGGUGG | 0.464 ± 0.054 | 1.736 ± 0.014 | 0.742 ± 0.064 | 1.96 ± 0.031
UGGUGA | 0.399 ± 0.049 | 1.881 ± 0.0069 | 0.443 ± 0.061 | 2.014 ± 0.0098
UGGUGU | 0.386 ± 0.1 | 1.933 ± 0.014 | 0.292 ± 0.034 | 2.01 ± 0.048
GGGAAG | 0.485 ± 0.082 | 1.955 ± 0.015 | 0.402 ± 0.061 | 2.04 ± 0.027
GGCCAA | 0.479 ± 0.052 | 2.045 ± 0.013 | 0.409 ± 0.049 | 2.024 ± 0.0077
GGCCAU | 0.522 ± 0.091 | 2.05 ± 0.023 | 0.337 ± 0.19 | 2.01 ± 0.063
UGCAGG | -0.138 ± 0.052 | 1.68 ± 0.029 | -0.00907 ± 0.1 | 1.909 ± 0.017
UGCAGA | -0.262 ± 0.068 | 1.899 ± 0.008 | -0.0873 ± 0.14 | 1.995 ± 0.0057
UGGAUU | 0.509 ± 0.13 | 1.9762 ± 0.00085 | 0.582 ± 0.21 | 2.03 ± 0.023
UGGAUG | 0.178 ± 0.037 | 1.68 ± 0.017 | 0.784 ± 0.046 | 1.958 ± 0.015
UGCAUG | 0.298 ± 0.025 | 1.734 ± 0.0064 | 0.712 ± 0.11 | 1.97 ± 0.026
UGCAUU | 0.0991 ± 0.29 | 1.987 ± 0.01 | -0.057 ± 0.47 | 2.01 ± 0.043
CGCAAC | 0.453 ± 0.13 | 2.027 ± 0.0066 | 0.417 ± 0.14 | 1.99 ± 0.013
AGAUGA | 0.308 ± 0.011 | 1.9723 ± 0.0012 | 0.112 ± 0.046 | 2.02 ± 0.038
AGAUGG | 0.589 ± 0.0066 | 1.91 ± 0.0092 | 0.62 ± 0.25 | 2.02 ± 0.028
CGGGAA | 0.288 ± 0.27 | 1.98 ± 0.024 | 0.519 ± 0.063 | 2.02 ± 0.046
CGGGAC | -0.0861 ± 0.029 | 2.015 ± 0.0095 | -0.418 ± 0.079 | 2.02 ± 0.032

Variant | FACS-Seq fitted mean (log10) ((6R,S)-folinic acid [1]) | normalized RNA/DNA level without ligand (log10) ((6R,S)-folinic acid [2]) | FACS-Seq fitted mean (log10) ((6R,S)-folinic acid [3]) | normalized RNA/DNA level with ligand (log10) ((6R,S)-folinic acid [4])
CGGGAU | 0.211 ± 0.017 | 1.97 ± 0.029 | 0.0466 ± 0.17 | 2 ± 0.049
GGGAUG | 0.385 ± 0.017 | 1.974 ± 0.017 | 0.354 ± 0.025 | 2.04 ± 0.028
AGGCAA | 0.293 ± 0.14 | 1.994 ± 0.016 | 0.205 ± 0.1 | 1.994 ± 0.019
AGGCAU | 0.532 ± 0.008 | 1.982 ± 0.0087 | 0.603 ± 0.48 | 2.02 ± 0.026
AGGCAC | 0.308 ± 0.083 | 2.0376 ± 0.0006 | 0.298 ± 0.11 | 2.02 ± 0.018
GGCUUG | 0.434 ± 0.019 | 2.078 ± 0.012 | 0.292 ± 0.34 | 2.049 ± 0.018
AGCCUG | 0.71 ± 0.23 | 2.01 ± 0.027 | 0.405 ± 0.12 | 2.05 ± 0.051
AGCCUA | 0.465 ± 0.015 | 2.021 ± 0.012 | 0.612 ± 0.31 | 2.01 ± 0.021
CGGCUC | 0.213 ± 0.046 | 2.048 ± 0.0069 | 0.269 ± 0.16 | 2.037 ± 0.014
UGGAAG | 0.369 ± 0.058 | 1.653 ± 0.0055 | 0.695 ± 0.017 | 1.96 ± 0.039
GGGGAA | 0.571 ± 0.12 | 1.996 ± 0.0088 | 0.428 ± 0.4 | 2.06 ± 0.034
AGAUCA | -0.134 ± 0.025 | 2.01 ± 0.005 | -0.625 ± 0.07 | 2 ± 0.058
GGGUGA | 0.435 ± 0.078 | 2.067 ± 0.0049 | 0.36 ± 0.31 | 2.07 ± 0.036
GGGUGC | 0.427 ± 0.079 | 1.969 ± 0.01 | 0.461 ± 0.023 | 2.011 ± 0.007
GGUAAU | 0.342 ± 0.044 | 1.992 ± 0.015 | 0.504 ± 0.12 | 2.03 ± 0.043
GGUAAG | 0.539 ± 0.082 | 1.919 ± 0.0032 | 0.424 ± 0.051 | 2 ± 0.036
GGUAAA | 0.462 ± 0.11 | 1.979 ± 0.014 | 0.474 ± 0.38 | 2 ± 0.03
GGGUUG | 0.344 ± 0.19 | 2.037 ± 0.0021 | 0.56 ± 0.17 | 2.05 ± 0.049
AGCAAA | 0.455 ± 0.047 | 1.979 ± 0.004 | 0.532 ± 0.21 | 2 ± 0.028
GGGCAU | 0.273 ± 0.12 | 2.045 ± 0.01 | 0.0697 ± 0.059 | 2.054 ± 0.0062
UGGGAG | -0.0508 ± 0.0099 | 1.6 ± 0.025 | 0.331 ± 0.024 | 1.93 ± 0.078
UGGGAU | 0.3975 ± 0.0017 | 1.86 ± 0.022 | 0.547 ± 0.094 | 2 ± 0.046
AGCGGU | 0.638 ± 0.18 | 1.952 ± 0.013 | 0.522 ± 0.022 | 2 ± 0.043
GGUACA | -0.547 ± 0.083 | 2.066 ± 0.0024 | -0.647 ± 0.18 | 2.07 ± 0.036
